# Data as given in article PMC4355236.
# T1: POT1 (Homo sapiens, UniProt Q9NUX5 1-634)
# T1 sequence: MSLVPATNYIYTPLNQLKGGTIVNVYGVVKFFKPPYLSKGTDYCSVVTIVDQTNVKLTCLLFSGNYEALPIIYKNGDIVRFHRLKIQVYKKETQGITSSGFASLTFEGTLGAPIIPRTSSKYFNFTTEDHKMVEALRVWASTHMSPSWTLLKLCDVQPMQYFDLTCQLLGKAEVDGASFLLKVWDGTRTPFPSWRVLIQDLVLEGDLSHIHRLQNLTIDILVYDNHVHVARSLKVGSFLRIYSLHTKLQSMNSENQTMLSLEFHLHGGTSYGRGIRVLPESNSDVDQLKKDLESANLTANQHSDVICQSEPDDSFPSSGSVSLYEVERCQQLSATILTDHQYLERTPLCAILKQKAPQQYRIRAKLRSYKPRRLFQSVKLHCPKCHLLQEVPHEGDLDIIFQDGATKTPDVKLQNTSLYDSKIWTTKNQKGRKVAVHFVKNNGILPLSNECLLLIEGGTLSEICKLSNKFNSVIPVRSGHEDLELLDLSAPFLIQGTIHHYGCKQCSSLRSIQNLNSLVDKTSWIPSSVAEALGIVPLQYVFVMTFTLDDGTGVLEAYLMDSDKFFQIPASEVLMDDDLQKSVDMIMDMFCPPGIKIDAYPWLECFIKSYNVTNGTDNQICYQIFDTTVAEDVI
# Molecular target: T1, POT1
# Assay: EMSA
binder,measurement,value
TTAGGGTTAGCGTTAGGGTT (ssDNA) [primer a5TT],Kd,50 nM
